Data on six molecules can be found in article PMC3210020.

Assay [1] concerns the target integrin αIIbβ3 (human) (UniProt P05106). The assay is described as follows: ELISA.
Assay [2] shares this target. Nature of the assay: SPR.
The target of assay [3] is integrin αIIbβ3 (Homo sapiens) (UniProt P08514). The settings on record: cited from earlier work.
For assay [4] the target is unchanged. The settings on record: cited from earlier work. This is another data set of the same source.
The target is the same in assay [5]. The assay is described as follows: SPR. The note with it: cited from earlier work.
The target is the same in assay [6]. The assay is described as follows: solid-phase binding. The note with it: cited from earlier work.
Assay [7] deals with integrin αIIbβ3 (human) (UniProt P05106). Nature of the assay: SPR. This is another data set of the same source.
Assay [8] has the same target. Nature of the assay: SPR. This is another data set of the same source.

Like-named read-outs stand apart in the source and are kept apart here.

In the assay with integrin αIIbβ3 (human) [1], “biotinylated fibrinogen (from UniProt P02671-2 36-644; P02675 45-491; P02679-2 27-437) (natural protein)” yielded a midpoint of the saturable binding profile of 2 nM.
Molecule eptifibatide (peptide) registered a Ki with integrin αIIbβ3 (human) [2] of 0.4 nM.
fibrinogen (from UniProt P02671): the Kd in assay [3] was 165 nM; in assay [4], 50 nM; in assay [5], 3 nM; in assay [6], 60 nM.
In the assay with integrin αIIbβ3 (human) [7], “human fibrinogen (plasma), (AαBβγ)2 (from UniProt P02671-2 36-644; P02675 45-491; P02679-2 27-437) (natural protein)” showed a Kd of 4.42 nM, a koff of 8.41e-05 s⁻¹ and an on-rate constant (kon) of 19000 M⁻¹ s⁻¹. In the assay with integrin αIIbβ3 (human) [2], this molecule yielded a Kd of 3.2 nM, a dH of -11.7 kcal/mol, a fold slower off rate at 15 °C than at 37 °C of 7 fold and a fold slower on rate at 15 °C than at 37 °C of 2 fold. In the assay with integrin αIIbβ3 (human) [2], this molecule came in with a fold tighter binding at 15 °C than at 37 °C of 4 fold, a koff of 7.01e-05 s⁻¹ and a kon of 21900 M⁻¹ s⁻¹.
In turn, “normal recombinant fibrinogen (from UniProt P02671-2 36-644; P02675 45-491; P02679-2 27-437) (natural protein)” displayed a kon with integrin αIIbβ3 (human) [2] of 21900 M⁻¹ s⁻¹.
The molecule HHLGGAKQAGDV [synthetic γ-module peptide …] gave a percent reduction of the fibrinogen (100 nM) binding signal at 3 µM peptide with integrin αIIbβ3 (human) [8] of less than 10%.
